Results: patent publication US8461305B2, “L-fucose α1→6 specific lectin” (J-Oil Mills, Inc., priority 2008, dated 2013)

Assays:
[1] = hemagglutinating inhibition test with sugars (sugar binding specificity); type: cell-based
Excerpt: The sugar binding specificity of lectin also can be confirmed by using erythrocytes that can be specifically agglutinated by the lectin to investigate the sugar type that may inhibit the agglutination of the erythrocytes and the concentration thereof.
Various monosaccharides, oligosaccharides, and polysaccharides shown in Table 2 and glycoproteins shown in Table 3 were subjected to hemagglutinating inhibition test to evaluate PTL of Example 1 and the SRL of Example 2 with regard to the sugar binding specificity.
On a 96 well U-bottom microtiter plate, double dilution series of 10 μl of monosaccharide, oligosaccharide, polysaccharide, and glycoprotein solutions were prepared. Then, lectin solution adjusted in advance to have titer 4 was added in an amount of 10 μl to the respective wells. Then, the plate was subjected to a still-standing at a room temperature for one hour for sensitization. Then, 10 μl of 4%-red blood cell suspension was added to the respective wells and the plate was further subjected to a still-standing at a room temperature for one hour. […] The lowest concentration showing the inhibition was assumed as the minimum inhibition concentration. The lower the minimum inhibition concentration is, the higher the specificity to lectin is.
For comparison, the sugar binding specificity was evaluated using the following commercially-available lectins: Comparison Example 1: AAL (SEIKAGAKU BIOBUSINESS CORPORATION—J-OIL MILLS, Inc.), Comparison Example 2: AOL (TOKYO CHEMICAL INDUSTRY CO., LTD.—Gekkeikan Sake Company, Ltd.), Comparison Example 3: LCA (SEIKAGAKU BIOBUSINESS CORPORATION—J-OIL MILLS, Inc.), and Comparison Example 4: PSA (SEIKAGAKU BIOBUSINESS CORPORATION—J-OIL MILLS, Inc.).

[2] = frontal affinity chromatography (FAC), association constant to PA sugar chains having other L-fucose; type: binding; details: 25 degrees C.
Method: The following section will describe a method of calculating an association constant by frontal affinity chromatography (FAC). This method is based on the following principle. […] Then, the elution front end (front) is observed immediately. When there is an affinity with lectin, the elution of the sugar chain is delayed.
The preparation of a lectin column used in the apparatus is performed in the method as described below. 1. Purified lectin is dissolved in 0.1 to 0.2M of NaHCO3 buffer solution (pH 8.3 to 8.5). 2. The lectin is immobilized, via a lectin primary amino group, a carrier such as NHS activated sepharose. 3. Then, the lectin is blocked by Tris buffer solution including primary amine or ethanolamine for example. 4. Lectin-sepharose is suspended in 10 mM Tris buffer, including 0.8% of NaCl (pH 7.4, TBS). Then, lectin immobilized resin is filled in a miniature column (φ2 mm×10 mm, 31.4 μl). 5. The miniature column in which the lectin immobilized resin is filled is protected by a holder and the lectin column is connected to an FAC automatic analysis apparatus (FAC-1, SHIMADZU CORPORATION).
Then, the elution of the PA sugar chain from the column is detected by a fluorescence detector (excitation wavelength/fluorescence wavelength: 310 nm/380 nm).
Based on the detection data, by using the elution front end (Vo) of the sugar chain (PA rhamnose) not interacting with lectin as a reference, the delay (V−Vo) of the elution front end (V) of a sugar chain interacting with lectin is calculated as an interaction strength. Then, based on the following FAC criteria expressions, the association constant (Ka) between the sugar chain and lectin is calculated based on V−Vo and Bt. If the interaction strength (V−Vo value) and the association constant are higher, a higher affinity is caused between lectin and an L-fucose α1→6 sugar chain.
[In the formula, A means substance used for the elution, Ao means the initial concentration of the substance A, B means a immobilized ligand, V means the elution volume, Vo means the elution front end volume of the substance not interacting with the immobilized ligand B at all, Bt means an effective ligand amount, Kd means a dissociation constant (an inverse of the association constant)].
Pyridylaminated (PA) sugar chains shown in FIG. 1 and FIG. 2 were used to frontal affinity chromatography (FAC) analysis. PA sugars were purchased from TAKARA BIO INC., SEIKAGAKU BIOBUSINESS CORPORATION, and Masuda Chemical Industries co., LTD. PA sugar were also obtained by pyridylaminating, by GlycoTAG®(TAKARA BIO INC.), an unlabeled sugar chain or a sugar chain obtained by subjecting a sugar chain to enzyme digestion for example.
Lectin was dissolved in 0.2 M NaHCO3 buffer solution (pH 8.3) including 0.5 M NaCl and coupled to the NHS-activated sepharose (GE Healthcare Bioscience) by following the manufacturer's instructions. Then, lectin immobilized sepharose was suspended in 10 mM Tris buffer (pH 7.4, TBS) including […] and the resultant matter was filled in a miniature column (φ2 mm×10 mm, 31.4 μl).
Frontal affinity chromatography was performed using FAC automatic analysis apparatus (FAC-1, SHIMADZU CORPORATION). In particular, the above-prepared lectin column was inserted to a stainless steel holder and the holder was connected to FAC-1 apparatus. The flow rate and the column temperature were maintained at 0.125 ml/min and 25 degrees C., respectively. After the miniature column was equilibrated by the TBS, an excessive volume (0.5 ml to 4 ml) of a PA sugar chain (3.75 nM or 7.5 nM) was continuously inputted to the column using an automatic sampling apparatus.
The fluorescent strength of the eluate of the PA sugar (excitation wavelength of 310 nm and fluorescence wavelength of 380 nm) was monitored to measure the interaction strength [a difference of the front end eluate to the standard oligosaccharide (PA rhamnose): V−V0]. […]

[3] = inhibitor: N-Acetylneuraminic acid
[4] = inhibitor: N-acetylgalactosamine
[5] = inhibitor: N-glycolylneuraminic acid
[6] = Sugar chain No. 728 (as listed in Table 5/12)

B1: Aleuria aurantia lectin (protein)
chain: PTEFLYTSKIAAISWAATGGRQQRVYFQDLNGKIREAQRGGDNPWTGGSSQNVIGEAKLFSPLAAVTWKSAQGIQIRVYCVNKDNILSEFVYDGSKWITGQLGSVGVKVGSNSKLAALQWGGSESAPPNIRVYYQKSNGSGSSIHEYVWSGKWTAGASFGSTVPGTGIGATAIGPGRLRIYYQATDNKIREHCWDSNSWYVGGFSASASAGVSIAAISWGSTPNIRVYWQKGREELYEAAYGGSWNTPGQIKDASRPTPSLPDTFIAANSSGNIDISVFFQASGVSLQQWQWISGKGWSIGAVVPTGTPAGW
50 mM: minimum inhibition concentration of hemagglutination ([1]; inhibitor: Mannose)
>6 mM: minimum inhibition concentration of hemagglutination ([1]; inhibitor: Lactose) | minimum inhibition concentration of hemagglutination ([1]; inhibitor: Serial lactose)
25 mM: minimum inhibition concentration of hemagglutination ([1]; inhibitor: Fructose)
35000 M⁻¹: association constant Ka ([2]; Sugar chain No. 723)
>100 mM: minimum inhibition concentration of hemagglutination ([1]; inhibitor: Galactose) | minimum inhibition concentration of hemagglutination ([1]; inhibitor: Glucose) | minimum inhibition concentration of hemagglutination ([1]; inhibitor: Maltose) | minimum inhibition concentration of hemagglutination ([1]; inhibitor: Melibiose) | minimum inhibition concentration of hemagglutination ([1]; inhibitor: Metyl α-mannoside) | minimum inhibition concentration of hemagglutination [1, 3] | minimum inhibition concentration of hemagglutination [1, 4] | minimum inhibition concentration of hemagglutination ([1]; inhibitor: N-acetylglucosamine) | minimum inhibition concentration of hemagglutination [1, 5] | minimum inhibition concentration of hemagglutination ([1]; inhibitor: Raffinose) | minimum inhibition concentration of hemagglutination ([1]; inhibitor: Rhamnose) | minimum inhibition concentration of hemagglutination ([1]; inhibitor: Sucrose) | minimum inhibition concentration of hemagglutination ([1]; inhibitor: Xylose)
<1000 M⁻¹: association constant Ka ([2]; Sugar chain No. 419) | association constant Ka ([2]; Sugar chain No. 420) | association constant Ka ([2]; Sugar chain No. 719) | association constant Ka ([2]; Sugar chain No. 720) | association constant Ka ([2]; Sugar chain No. 721) | association constant Ka ([2]; Sugar chain No. 722) | association constant Ka ([2]; Sugar chain No. 726) | association constant Ka [2, 6] | association constant Ka ([2]; Sugar chain No. 729) | association constant Ka ([2]; Sugar chain No. 730) | association constant Ka ([2]; Sugar chain No. 731) | association constant Ka ([2]; Sugar chain No. 739) | association constant Ka ([2]; Sugar chain No. 931) | association constant Ka ([2]; Sugar chain No. 932)
210000 M⁻¹: association constant Ka ([2]; Sugar chain No. 933)
90000 M⁻¹: association constant Ka ([2]; Sugar chain No. 910)
310000 M⁻¹: association constant Ka ([2]; Sugar chain No. 909)
65000 M⁻¹: association constant Ka ([2]; Sugar chain No. 718)
0.391 mM: minimum inhibition concentration of hemagglutination ([1]; inhibitor: L-fucose)
130000 M⁻¹: association constant Ka ([2]; Sugar chain No. 727)

B2: Lens culinaris agglutinin (protein)
chain 1: TETTSFSITKFSPDQKNLIFQGDGYTTKGKLTLTKAVKSTVGRALYSTPIHIWDRDTGNVANFVTSFTFVIDAPSSYNVADEFTFFIAPVDTKPQTGGGYLGVFNSKEYDKTSQTVAVEFDTFYNAAWDPSNKERHIGIDVNSIKSVNTKSWNLQNGERANVVIAFNAATNVLTVTLTYP
chain 2: VTSYTLNEVVPLKDVVPEWVRIGFSATTGAEFAAHEVHSWSFHSELGGTSSS
>6 mM: minimum inhibition concentration of hemagglutination ([1]; inhibitor: Lactose) | minimum inhibition concentration of hemagglutination ([1]; inhibitor: Serial lactose)
50 mM: minimum inhibition concentration of hemagglutination ([1]; inhibitor: Mannose) | minimum inhibition concentration of hemagglutination ([1]; inhibitor: Metyl α-mannoside)
>100 mM: minimum inhibition concentration of hemagglutination ([1]; inhibitor: Fructose) | minimum inhibition concentration of hemagglutination ([1]; inhibitor: Galactose) | minimum inhibition concentration of hemagglutination ([1]; inhibitor: Glucose) | minimum inhibition concentration of hemagglutination ([1]; inhibitor: L-fucose) | minimum inhibition concentration of hemagglutination ([1]; inhibitor: Melibiose) | minimum inhibition concentration of hemagglutination [1, 3] | minimum inhibition concentration of hemagglutination [1, 4] | minimum inhibition concentration of hemagglutination ([1]; inhibitor: N-acetylglucosamine) | minimum inhibition concentration of hemagglutination [1, 5] | minimum inhibition concentration of hemagglutination ([1]; inhibitor: Raffinose) | minimum inhibition concentration of hemagglutination ([1]; inhibitor: Rhamnose) | minimum inhibition concentration of hemagglutination ([1]; inhibitor: Sucrose) | minimum inhibition concentration of hemagglutination ([1]; inhibitor: Xylose)
<1000 M⁻¹: association constant Ka ([2]; Sugar chain No. 419) | association constant Ka ([2]; Sugar chain No. 420) | association constant Ka ([2]; Sugar chain No. 718) | association constant Ka ([2]; Sugar chain No. 719) | association constant Ka ([2]; Sugar chain No. 720) | association constant Ka ([2]; Sugar chain No. 721) | association constant Ka ([2]; Sugar chain No. 722) | association constant Ka ([2]; Sugar chain No. 723) | association constant Ka ([2]; Sugar chain No. 726) | association constant Ka ([2]; Sugar chain No. 727) | association constant Ka [2, 6] | association constant Ka ([2]; Sugar chain No. 729) | association constant Ka ([2]; Sugar chain No. 730) | association constant Ka ([2]; Sugar chain No. 731) | association constant Ka ([2]; Sugar chain No. 739) | association constant Ka ([2]; Sugar chain No. 909) | association constant Ka ([2]; Sugar chain No. 910) | association constant Ka ([2]; Sugar chain No. 931) | association constant Ka ([2]; Sugar chain No. 932) | association constant Ka ([2]; Sugar chain No. 933)
100 mM: minimum inhibition concentration of hemagglutination ([1]; inhibitor: Maltose)
